From patent US20210301025A1 (published 2021)
One block for each binder: values may come before it.

Columns and labels:
[1] = molecular target: T1, human c-Met on cells (NCI-H441, NCI-H292, U87-MG) (human, UniProt P08581 25-1390); experiment: cell-based or functional assay
[2] = molecular target: T1, human c-Met on cells (NCI-H441, …); experiment: NCI-H441 cell binding, anti-His fluorescence
Description: Purified FN3 domains (50 μL/well; 0 to 1000 nM) were added to the cells for 1 hour at 4° C. in duplicate plates. Supernatant was removed and cells were washed three times with FACS stain buffer (150 μL/well, BD Biosciences, cat #554657). Cells were incubated with biotinylated-anti HIS antibody (diluted 1:160 in FACS stain buffer, 50 μL/well, R&D Systems, cat # BAM050) for 30 minutes at 4° C. Cells were washed three times with FACS stain buffer (150 μL/well), after which wells were incubated with anti mouse IgG1-Alexa 488 conjugated antibody (diluted 1:80 in FACS stain buffer, 50 μL/well, Life Technologies, cat # A21121) for 30 minutes at 4° C. Cells were washed three times with FACS stain buffer (150 μL/well) and left in FACS stain buffer (50 μL/well). Total fluorescence was determined using an Acumen eX3 reader. Data were plotted as raw fluorescence signal against the logarithm of the FN3 domain molar concentration and fitted to a sigmoidal dose-response curve with variable slope using GraphPad Prism 4 (GraphPad Software) to calculate EC₅₀ values.

[3] = molecular target: T2, Recombinant human c-Met Fc chimera (human, UniProt P08581 16-932); experiment: competition with biotinylated HGF on plate-coated c-Met-Fc
T2 construct: whole c-Met entry named; also called c-Met-Fc fusion protein

[4] = molecular target: T1, human c-Met on cells (NCI-H441, …); experiment: cell-based or functional assay; remark: listed apart in the source
[5] = molecular target: T3, recombinant c-Met extracellular domain (human, UniProt P08581 16-932); experiment: SPR kinetic analysis as in Example 2
T3 construct: Construct used for SPR is not described further (may be the Fc chimera, as the protocol captures on anti-human Fc)

[6] = molecular target: EGFR (form used in the assay not stated) (human, UniProt P00533 25-645, limits assumed); experiment: affinity quoted in text, assay not stated

- Inhibition of proliferation of U87-MG cells IC50 [1]: 464 nM
- pMet inhibition in H441 cells IC50 [1]: 1.08 µM
- EC50 [2]: 18.7 nM
- IC50 [3]: 5.2 nM
- IC50 of inhibition of c-Met phosphorylation, NCI-H292 cells [4]: 610 nM
- Kd [5]: 10.1 nM
B1: P114AR5P74-A5 (designed binder, not shown: small tags and cut ends)
chain: LPAPKNLVVSRVTEDSARLSWTAPDAAFDSFWIRYDEVVVGGEAIVLTVPGSERSYDLTGLKPGTEYYVNILGVKGGSISVPLSAIFTT

- Kd [6]: 1.9 nM
B2: P53A1R5-17v2 (designed binder)
chain: LPAPKNLVVSEVTEDSARLSWADPHGFYDSFLIQYQESEKVGEAIVLTVPGSERSYDLTGLKPGTEYTVSIYGVHNVYKDTNMRGLPLSAIFTT
